# Test results: PMC11763338
# Target: recombinant human α-synuclein protein seeds (human) (UniProt P37840)
substance,measurement,value
R18D (18-mer of D-arginine) (peptide),"percent inhibition of aggregation of α-syn monomer seeded by m2, cell-free ThT fluorescence at 24 h; R18D 0.05-0.25 μM pre-incubated with the seeds",62.1%
same,"percent inhibition of intracellular α-syn aggregation in rat cortical neurons exposed to seeds (0.14 μM), HTRF aggregate assay at 48 h; R18D 0.0625-0.5 μM added 2 h after the seeds",37.8%
